Assay results taken from patent publication US20250011363A1, “OPTIMIZED SHORTENED PEPTIDE THAT BINDS TO ACETYLCHOLINE RECEPTOR, AND USE THEREOF” (SKINMED CO., LTD., priority 2021, published 2025).

Each substance was assayed against acetylcholine receptor (Homo sapiens, UniProt P02708) (assay: SPR binding affinity (RU) of optimized 5mer/6mer/7mer peptides, Examples 6-7). Details: 6mer-1 Top sequence; SPR; peptides tested at 10 μM.
Sequence of acetylcholine receptor (P02708 21-457): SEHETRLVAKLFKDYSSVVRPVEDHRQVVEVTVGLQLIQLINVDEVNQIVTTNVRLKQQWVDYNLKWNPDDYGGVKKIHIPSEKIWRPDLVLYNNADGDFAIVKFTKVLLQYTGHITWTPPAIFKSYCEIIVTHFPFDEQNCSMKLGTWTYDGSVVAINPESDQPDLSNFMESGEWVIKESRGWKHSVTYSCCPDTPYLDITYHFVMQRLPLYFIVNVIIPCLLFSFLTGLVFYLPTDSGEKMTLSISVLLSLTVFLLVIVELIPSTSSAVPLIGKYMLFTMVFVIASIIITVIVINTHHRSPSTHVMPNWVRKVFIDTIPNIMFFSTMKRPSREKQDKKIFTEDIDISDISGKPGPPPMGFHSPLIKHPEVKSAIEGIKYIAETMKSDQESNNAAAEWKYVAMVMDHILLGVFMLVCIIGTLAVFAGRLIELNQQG
Outline: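 Binding response (RU) to the human acetylcholine receptor was measured by SPR. Each 5mer or 6mer library peptide was applied at 10 μM, with sequences drawn from top and bottom amino-acid combinations.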
For 6mer-1-244 (RRRVQK), the Binding affinity was 144 Ru.
For 6mer-1-336 (KRVVTK), the Binding affinity was 154 Ru.
Substance 6mer-1-391 (RRQRCK) has a Binding affinity of 131 Ru.

Same assay, conditions: 6mer-2 Top sequence; SPR; peptides tested at 10 μM
Substance 6mer-2-47 (KLQSRR) has a Binding affinity of 148 Ru.
Work on 6mer-2-159 (RQYYRK) yielded a Binding affinity of 127 Ru.
6mer-2-145 (RQYYKK) showed a Binding affinity of 128 Ru.
Substance 6mer-2-26 (RWRRKK) has a Binding affinity of 121 Ru.
In the case of 6mer-2-49 (RLRCRK), the Binding affinity is reported as 154 Ru.
6mer-2-48 (RRFRKK) was tested, and the Binding affinity was 153 Ru.
In the case of 6mer-2-91 (KWIYKR), the Binding affinity is reported as 121 Ru.

Same assay, conditions: SPR, Resonance Units; 5mer Bottom sequence (bottom combinations); peptides tested at 10 μM
For 5mer-1110 (RMHMK), the Binding affinity was 13 Ru.
5mer-665 (KTWEK) was tested, and the Binding affinity was 26 Ru.
5mer-908 (RCHFK) was tested, and the Binding affinity was 25 Ru.
5mer-657 (KDNDR) gave a Binding affinity of 22 Ru.
Substance 5mer-637 (KCDHK) has a Binding affinity of 28 Ru.
5mer-701 (RNHNK) showed a Binding affinity of 22 Ru.
In the case of 5mer-969 (RNTVR), the Binding affinity is reported as 27 Ru.
With 5mer-717 (KCKFR) the Binding affinity was 20 Ru.
For 5mer-644 (RMKWK), the Binding affinity was 24 Ru.
With 5mer-999 (KTKFK) the Binding affinity was 19 Ru.
5mer-911 (REHGK) gave a Binding affinity of 14 Ru.
For 5mer-704 (RFMGK), the Binding affinity was 28 Ru.
5mer-713 (KYPKK) gave a Binding affinity of 16 Ru.
Work on 5mer-738 (KTPMK) yielded a Binding affinity of 29 Ru.
Work on 5mer-1054 (RNKVR) yielded a Binding affinity of 21 Ru.

Same assay, conditions: SPR, Resonance Units; peptides tested at 10 μM; 6mer-1 Bottom sequence
6mer-1-1144 (KKCMGR) gave a Binding affinity of 25 Ru.
6mer-1-1078 (RRPDIK) gave a Binding affinity of 25 Ru.
With 6mer-1-1116 (KRHPFR) the Binding affinity was 35 Ru.
Work on 6mer-1-1112 (KKDPWK) yielded a Binding affinity of 27 Ru.
For 6mer-1-1030 (KKFCFR), the Binding affinity was 30 Ru.
6mer-1-1014 (KKNAWR) showed a Binding affinity of 25 Ru.
For 6mer-1-1127 (RKMMMK), the Binding affinity was 34 Ru.

Same assay, conditions: SPR, Resonance Units; peptides tested at 10 μM; 6mer-1 Bottom sequence (Table 11)
With 6mer-1-678 (KRMAAK) the Binding affinity was 25 Ru.
6mer-1-793 (KKTPNR) showed a Binding affinity of 31 Ru.
6mer-1-676 (KRCPWR) gave a Binding affinity of 16 Ru.
In the case of 6mer-1-776 (KKTSIK), the Binding affinity is reported as 13 Ru.
Work on 6mer-1-673 (RRAMPK) yielded a Binding affinity of 16 Ru.
For 6mer-1-734 (RRTHER), the Binding affinity was 21 Ru.
6mer-1-753 (KKDTHK) showed a Binding affinity of 12 Ru.
6mer-1-695 (KRADVK) was tested, and the Binding affinity was 13 Ru.
In the case of 6mer-1-788 (RKIPKK), the Binding affinity is reported as 22 Ru.
6mer-1-702 (KRDWVK) gave a Binding affinity of 31 Ru.
6mer-1-629 (RKMDAK) was tested, and the Binding affinity was 11 Ru.
With 6mer-1-684 (KRNNDR) the Binding affinity was 20 Ru.

Same assay, conditions: SPR, Resonance Units; peptides tested at 10 μM; 6mer-2 Bottom sequence
In the case of 6mer-2-955 (RMPERR), the Binding affinity is reported as 29 Ru.
Work on 6mer-2-915 (KNCWKR) yielded a Binding affinity of 29 Ru.
With 6mer-2-883 (RTNEKR) the Binding affinity was 22 Ru.
Work on 6mer-2-677 (RENWKK) yielded a Binding affinity of 28 Ru.
Substance 6mer-2-666 (KPMDRR) has a Binding affinity of 25 Ru.
6mer-2-755 (RYNDKK) was tested, and the Binding affinity was 18 Ru.
6mer-2-770 (KPNMKK) was tested, and the Binding affinity was 24 Ru.
With 6mer-2-798 (RDTPKK) the Binding affinity was 17 Ru.
6mer-2-713 (RASWRR) showed a Binding affinity of 24 Ru.
Work on 6mer-2-939 (KKCARR) yielded a Binding affinity of 22 Ru.
Substance 6mer-2-827 (KYAEKK) has a Binding affinity of 13 Ru.

Same assay, conditions: SPR, Resonance Units; peptides tested at 10 μM; 6mer-2 Top sequence
6mer-2-507 (RGICKR) showed a Binding affinity of 145 Ru.
6mer-2-463 (KLLTRR) gave a Binding affinity of 124 Ru.
6mer-2-420 (RRQYRK) gave a Binding affinity of 128 Ru.
Substance 6mer-2-431 (KLILKR) has a Binding affinity of 135 Ru.
6mer-2-482 (KGQTRR) showed a Binding affinity of 154 Ru.
With 6mer-2-539 (KWYTKK) the Binding affinity was 127 Ru.
With 6mer-2-483 (RRYLKK) the Binding affinity was 121 Ru.
With 6mer-2-580 (KWQQRR) the Binding affinity was 121 Ru.
6mer-2-423 (RLQYRK) was tested, and the Binding affinity was 154 Ru.
6mer-2-407 (KQVSKR) showed a Binding affinity of 122 Ru.
Substance 6mer-2-587 (KRISKR) has a Binding affinity of 148 Ru.
6mer-2-475 (KRFCRR) was tested, and the Binding affinity was 139 Ru.
6mer-2-530 (RSYSKR) gave a Binding affinity of 139 Ru.
6mer-2-537 (KVLCKR) was tested, and the Binding affinity was 153 Ru.

Same assay, conditions: SPR, Resonance Units; peptides tested at 10 μM; 6mer-2 Top sequence (Table 12)
Substance 6mer-2-237 (RLVYKR) has a Binding affinity of 123 Ru.
In the case of 6mer-2-351 (KLYTKR), the Binding affinity is reported as 135 Ru.
6mer-2-384 (RSFQKK) showed a Binding affinity of 142 Ru.
For 6mer-2-368 (RLRTRR), the Binding affinity was 142 Ru.
With 6mer-2-358 (RQIYKK) the Binding affinity was 154 Ru.
6mer-2-390 (KWLRRR) was tested, and the Binding affinity was 145 Ru.
Work on 6mer-2-318 (RGIQKK) yielded a Binding affinity of 145 Ru.
6mer-2-346 (KRFSKK) gave a Binding affinity of 153 Ru.
6mer-2-280 (KSIYRR) showed a Binding affinity of 153 Ru.

Same assay, conditions: SPR, peptides at 10 μM; 6mer-2 Bottom sequence
In the case of 6mer-2-1151 (RYPVRK), the Binding affinity is reported as 43 Ru.
Substance 6mer-2-1117 (RMHVKR) has a Binding affinity of 21 Ru.
6mer-2-1029 (KEEFKK) was tested, and the Binding affinity was 40 Ru.
6mer-2-1156 (KMNARR) was tested, and the Binding affinity was 35 Ru.
In the case of 6mer-2-1180 (RAANRR), the Binding affinity is reported as 34 Ru.
6mer-2-1144 (RFEDRK) was tested, and the Binding affinity was 39 Ru.
Work on 6mer-2-1164 (RYNHKR) yielded a Binding affinity of 33 Ru.
6mer-2-1149 (KIDFRR) showed a Binding affinity of 21 Ru.
6mer-2-1161 (RHSFKK) gave a Binding affinity of 27 Ru.
With 6mer-2-1052 (KAPARK) the Binding affinity was 23 Ru.
Work on 6mer-2-1018 (RPTKKK) yielded a Binding affinity of 24 Ru.

Same assay, conditions: SPR, peptides tested at 10 μM; 5mer Top sequence
For 5mer-381 (KGQRR), the Binding affinity was 87 Ru.
5mer-84 (RVVRR) showed a Binding affinity of 67 Ru.
In the case of 5mer-196 (RSYYR), the Binding affinity is reported as 69 Ru.
For 5mer-34 (KRIRK), the Binding affinity was 82 Ru.
5mer-132 (RVRCK) was tested, and the Binding affinity was 83 Ru.
Substance 5mer-165 (KWRSK) has a Binding affinity of 56 Ru.
Substance 5mer-306 (KSYYR) has a Binding affinity of 74 Ru.
Substance 5mer-17 (KRIYK) has a Binding affinity of 70 Ru.
Substance 5mer-130 (RRFRK) has a Binding affinity of 80 Ru.
5mer-4 (KRFLR) gave a Binding affinity of 58 Ru.
Work on 5mer-490 (RWLLK) yielded a Binding affinity of 60 Ru.
Substance 5mer-310 (KSRQR) has a Binding affinity of 78 Ru.
For 5mer-319 (RVQTR), the Binding affinity was 74 Ru.
5mer-370 (KWRRK) gave a Binding affinity of 67 Ru.
5mer-207 (KQVRR) was tested, and the Binding affinity was 72 Ru.

Same assay, conditions: SPR, peptides tested at 10 μM; 5mer Top sequence (top combinations)
Substance 5mer-247 (RWYCR) has a Binding affinity of 80 Ru.
Substance 5mer-295 (RGRCR) has a Binding affinity of 52 Ru.
5mer-546 (KVVLK) gave a Binding affinity of 65 Ru.
In the case of 5mer-240 (KWRYR), the Binding affinity is reported as 51 Ru.
5mer-221 (RGRTR) was tested, and the Binding affinity was 58 Ru.
5mer-216 (KWVRR) was tested, and the Binding affinity was 56 Ru.
For 5mer-578 (KSVLR), the Binding affinity was 65 Ru.

Same assay, conditions: SPR, peptides tested at 10 μM; 6mer-1 Bottom sequence (Table 11)
6mer-1-895 (KKDSKK) showed a Binding affinity of 28 Ru.
In the case of 6mer-1-955 (RKECFK), the Binding affinity is reported as 23 Ru.
For 6mer-1-968 (RREDFR), the Binding affinity was 39 Ru.
Substance 6mer-1-987 (RRTEFK) has a Binding affinity of 34 Ru.
6mer-1-807 (RRDKNR) gave a Binding affinity of 13 Ru.
In the case of 6mer-1-804 (KRDPFR), the Binding affinity is reported as 31 Ru.
For 6mer-1-835 (KRTADK), the Binding affinity was 26 Ru.
For 6mer-1-809 (KKKSNR), the Binding affinity was 12 Ru.
For 6mer-1-900 (RRDTGR), the Binding affinity was 24 Ru.
With 6mer-1-939 (KRNDFK) the Binding affinity was 41 Ru.
Work on 6mer-1-855 (RKCDVR) yielded a Binding affinity of 15 Ru.

Same assay, conditions: SPR, peptides tested at 10 μM; 6mer-1 Top sequence
In the case of 6mer-1-442 (RKLQYK), the Binding affinity is reported as 131 Ru.
Substance 6mer-1-595 (KKSLCK) has a Binding affinity of 121 Ru.
Substance 6mer-1-418 (RRQVRK) has a Binding affinity of 123 Ru.
For 6mer-1-454 (RKVLRR), the Binding affinity was 124 Ru.
Substance 6mer-1-495 (RKGFQR) has a Binding affinity of 126 Ru.
Substance 6mer-1-553 (RRGVRK) has a Binding affinity of 128 Ru.
For 6mer-1-513 (RKQIRR), the Binding affinity was 154 Ru.
6mer-1-532 (KKSQLR) was tested, and the Binding affinity was 121 Ru.
6mer-1-487 (RKGRRK) gave a Binding affinity of 121 Ru.
Substance 6mer-1-465 (RKQVYK) has a Binding affinity of 154 Ru.
6mer-1-460 (RRGFYR) was tested, and the Binding affinity was 148 Ru.
6mer-1-512 (RKWICK) showed a Binding affinity of 154 Ru.

Same assay, conditions: SPR, peptides tested at 10 μM; 6mer-1 Top sequence (top combinations)
6mer-1-131 (KRGIQR) was tested, and the Binding affinity was 142 Ru.
6mer-1-92 (RRWRLK) was tested, and the Binding affinity was 153 Ru.
In the case of 6mer-1-47 (KRRLLK), the Binding affinity is reported as 149 Ru.
For 6mer-1-19 (KRSFYR), the Binding affinity was 135 Ru.
In the case of 6mer-1-162 (KKSLSK), the Binding affinity is reported as 142 Ru.
With 6mer-1-96 (KRGVRK) the Binding affinity was 125 Ru.
For 6mer-1-74 (KKVRLR), the Binding affinity was 142 Ru.
6mer-1-94 (RKVQQK) was tested, and the Binding affinity was 142 Ru.

Same assay, conditions: SPR; XRRGVRR-7mer and RRGVRRX-7mer
3645 (PRRGVRR) [compound 3645] was tested, and the “Binding affinity, values relative to the RRGVRR sequence” value was 138.
For 3668 (RRGVRRM) [compound 3668], the “Binding affinity, values relative to the RRGVRR sequence” value was 127.

Same assay, conditions: SPR; XRRQRR-6mer and RRQRRX-6mer
In the case of 3602 (ARRQRR) [compound 3602], the “Binding affinity, relative value to the RRQRR sequence” value is reported as 129.

Same assay, conditions: SPR; peptides tested at 10 μM; 5mer Bottom sequence
Substance 5mer-827 (KKAGR) has a Binding affinity of 18 Ru.
5mer-1175 (RDMIR) gave a Binding affinity of 30 Ru.
In the case of 5mer-822 (RAKGK), the Binding affinity is reported as 16 Ru.
5mer-866 (RINWR) gave a Binding affinity of 11 Ru.
5mer-849 (KTWMK) gave a Binding affinity of 15 Ru.
